T1: monomeric soluble human CD200R extracellular domain (human, UniProt Q8TD46 29-265)
T1 construct: extracellular domain; also called hCD200R; monomeric CD200R protein
T1 sequence (looked up): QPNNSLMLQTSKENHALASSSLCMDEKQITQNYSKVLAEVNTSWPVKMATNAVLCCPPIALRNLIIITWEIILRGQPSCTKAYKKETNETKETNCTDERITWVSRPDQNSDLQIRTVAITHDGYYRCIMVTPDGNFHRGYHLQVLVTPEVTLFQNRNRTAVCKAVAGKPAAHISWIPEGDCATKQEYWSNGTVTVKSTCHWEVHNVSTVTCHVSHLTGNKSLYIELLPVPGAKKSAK

B1: Antibody I-4P (antibody, human IgG4 S228P, kappa, V domains shown)
VH: QVQLVQSGAEVKKPGASVKVSCKASGFSFSSGYYMAWVRQAPGQGLEWMGLIGVGSGSLWYAQKFQGRVTMTRDTSTSTVYMELSSLRSEDTAVYYCARHFALSDPFNLWGQGTLVTVSS
VL: EIVLTQSPDFQSVTPKEKVTITCQASESIDSYLLWYQQKPDQSPKLLIKQASTLASGVPSRFSGSGSGTDFTLTINSLEAEDAATYYCQNYYDISSNDFGGGTKVEIKR
notes: also called AbI-4P; J-4P
B2: hu2131_v8 (antibody, human IgG1, V domains shown)
VH: QVQLVQSGAEVKKPGASVKLSCKASGHTFTSYWMHWVKQAPGQGLEWIGNIYPGSGSINYDEKFQGRATLTVDTSTRTAYMELSSLRSEDTAVYYCLTMTGTSWGRGTLVTVSS
VL: DVQMTQSPSSLSVSVGDRVTITCQASQGTPINLHWFQQKPGKAPKLLISGASNLEDGVPSRFSGSRYGTDFTFTISSLQPEDIATYFCLQFTYIPWTFGQGTKLEIK
notes: Expressed as human IgG1 with P238D Fc mutation
B3: hu2131_v10 (antibody, human IgG1, V domains shown)
VH: QVQLVQSGAEVKKPGASVKLSCKASGHTFTSYWMHWVKQAPGQGLEWIGNIYPGSGSINYDEKFQGRATLTVDTSTRTAYMELSSLRSEDTAVYYCLTMTGTSWGRGTLVTVSS
VL: DIQMTQSPSSLSVSVGDRVTITCQASQGTPINLHWFQQKPGKAPKLLISGASNLEDGVPSRFSGSGSGTEFTFTISSLQPEDAATYYCLQFTYIPWTFGQGTKLEIK
notes: as for B2
B4: hu2131_v11 (antibody, human IgG1, V domains shown)
VH: QVQLVQSGAEVKKPGASVKVSCKASGHTFTSYWMHWVRQAPGQGLEWIGNIYPGSGSINYDEKFQGRVTMTVDTSTSTAYMELSSLRSEDTAVYYCLTMTGTSWGRGTLVTVSS
VL: DVQMTQSPSSLSVSVGDRVTMTCQASQGTPINLHWFQQKPGKAPKLLISGASNLEDGVPSRFSGSRYGTAFTLTISSLQDEDIATYFCLQFTYIPWTFGQGTKLEIK
notes: as for B2
B5: hu2131_v16 (antibody, human IgG1, V domains shown)
VH: QVQLVQSGAEVKKPGASVKVSCKASGHTFTSYWMHWVRQAPGQGLEWMGNIYPGSGSINYDEKFQGRVTMTADTSTSTVYMELSSLRSEDTAVYYCLTMTGTSWGRGTLVTVSS
VL: DVQMTQSPSSLSVSVGDRVTMTCQASQGTPINLHWFQQKPGKAPKLLISGASNLEDGVPSRFSGSRYGTAFTLTISSLQDEDIATYFCLQFTYIPWTFGQGTKLEIK
notes: as for B2
B6: hu2131_v14 (antibody, human IgG1, V domains shown)
VH: QVQLVQSGAEVKKPGASVKVSCKASGHTFTSYWMHWVRQAPGQGLEWIGNIYPGSGSINYDEKFQGRVTMTVDTSTSTAYMELSSLRSEDTAVYYCLTMTGTSWGRGTLVTVSS
VL: DIQMTQSPSSLSVSVGDRVTITCQASQGTPINLHWFQQKPGKAPKLLISGASNLEDGVPSRFSGSGSGTDFTFTISSLQPEDIATYYCLQFTYIPWTFGQGTKLEIK
notes: as for B2
B7: hu2131_v3 (antibody, human IgG1, V domains shown)
VH: QVQLVQSGSELKKPGASVKLSCKASGHTFTSYWMHWVKQAPGQGLEWIGNIYPGSGSINYDEKFQGRATLTVDTSTRTAYMELSSLRSEDSAVYYCLTMTGTSWGRGTLVTVSS
VL: DVQMTQSPSSLSVSVGDRVTITCQASQGTPINLHWFQQKPGKAPKLLISGASNLEDGVPSRFSGSRYGTDFTFTISSLQPEDIATYFCLQFTYIPWTFGQGTKLEIK
notes: as for B2
B8: hu2131_v15 (antibody, human IgG1, V domains shown)
VH: QVQLVQSGAEVKKPGASVKVSCKASGHTFTSYWMHWVRQAPGQGLEWIGNIYPGSGSINYDEKFQGRVTMTVDTSTSTAYMELSSLRSEDTAVYYCLTMTGTSWGRGTLVTVSS
VL: DIQMTQSPSSLSVSVGDRVTITCQASQGTPINLHWFQQKPGKAPKLLISGASNLEDGVPSRFSGSGSGTEFTFTISSLQPEDAATYYCLQFTYIPWTFGQGTKLEIK
notes: as for B2
B9: hu2131_v13 (antibody, human IgG1, V domains shown)
VH: QVQLVQSGAEVKKPGASVKVSCKASGHTFTSYWMHWVRQAPGQGLEWIGNIYPGSGSINYDEKFQGRVTMTVDTSTSTAYMELSSLRSEDTAVYYCLTMTGTSWGRGTLVTVSS
VL: DVQMTQSPSSLSVSVGDRVTITCQASQGTPINLHWFQQKPGKAPKLLISGASNLEDGVPSRFSGSRYGTDFTFTISSLQPEDIATYFCLQFTYIPWTFGQGTKLEIK
notes: as for B2
B10: hu2131_v5 (antibody, human IgG1, V domains shown)
VH: QVQLVQSGSELKKPGASVKLSCKASGHTFTSYWMHWVKQAPGQGLEWIGNIYPGSGSINYDEKFQGRATLTVDTSTRTAYMELSSLRSEDSAVYYCLTMTGTSWGRGTLVTVSS
VL: DIQMTQSPSSLSVSVGDRVTITCQASQGTPINLHWFQQKPGKAPKLLISGASNLEDGVPSRFSGSGSGTEFTFTISSLQPEDAATYYCLQFTYIPWTFGQGTKLEIK
notes: as for B2
B11: hu2131_v18 (antibody, human IgG1, V domains shown)
VH: QVQLVQSGAEVKKPGASVKVSCKASGHTFTSYWMHWVRQAPGQGLEWMGNIYPGSGSINYDEKFQGRVTMTADTSTSTVYMELSSLRSEDTAVYYCLTMTGTSWGRGTLVTVSS
VL: DVQMTQSPSSLSVSVGDRVTITCQASQGTPINLHWFQQKPGKAPKLLISGASNLEDGVPSRFSGSRYGTDFTFTISSLQPEDIATYFCLQFTYIPWTFGQGTKLEIK
notes: as for B2
B12: hu2131_v12 (antibody, human IgG1, V domains shown)
VH: QVQLVQSGAEVKKPGASVKVSCKASGHTFTSYWMHWVRQAPGQGLEWIGNIYPGSGSINYDEKFQGRVTMTVDTSTSTAYMELSSLRSEDTAVYYCLTMTGTSWGRGTLVTVSS
VL: DVQMTQSPSSLSVSVGDRVTMTCQASQGTPINLHWFQQKPGKAPKLLISGASNLEDGVPSRFSGSRYGTAFTLTISSLQPEDIATYFCLQFTYIPWTFGQGTKLEIK
notes: as for B2
B13: hu2131_v19 (antibody, human IgG1, V domains shown)
VH: QVQLVQSGAEVKKPGASVKVSCKASGHTFTSYWMHWVRQAPGQGLEWMGNIYPGSGSINYDEKFQGRVTMTADTSTSTVYMELSSLRSEDTAVYYCLTMTGTSWGRGTLVTVSS
VL: DIQMTQSPSSLSVSVGDRVTITCQASQGTPINLHWFQQKPGKAPKLLISGASNLEDGVPSRFSGSGSGTDFTFTISSLQPEDIATYYCLQFTYIPWTFGQGTKLEIK
notes: as for B2
B14: hu2131_v2 (antibody, human IgG1, V domains shown)
VH: QVQLVQSGSELKKPGASVKLSCKASGHTFTSYWMHWVKQAPGQGLEWIGNIYPGSGSINYDEKFQGRATLTVDTSTRTAYMELSSLRSEDSAVYYCLTMTGTSWGRGTLVTVSS
VL: DVQMTQSPSSLSVSVGDRVTMTCQASQGTPINLHWFQQKPGKAPKLLISGASNLEDGVPSRFSGSRYGTAFTLTISSLQPEDIATYFCLQFTYIPWTFGQGTKLEIK
notes: as for B2
B15: hu2131_v6 (antibody, human IgG1, V domains shown)
VH: QVQLVQSGAEVKKPGASVKLSCKASGHTFTSYWMHWVKQAPGQGLEWIGNIYPGSGSINYDEKFQGRATLTVDTSTRTAYMELSSLRSEDTAVYYCLTMTGTSWGRGTLVTVSS
VL: DVQMTQSPSSLSVSVGDRVTMTCQASQGTPINLHWFQQKPGKAPKLLISGASNLEDGVPSRFSGSRYGTAFTLTISSLQDEDIATYFCLQFTYIPWTFGQGTKLEIK
notes: as for B2
B16: hu2131_v17 (antibody, human IgG1, V domains shown)
VH: QVQLVQSGAEVKKPGASVKVSCKASGHTFTSYWMHWVRQAPGQGLEWMGNIYPGSGSINYDEKFQGRVTMTADTSTSTVYMELSSLRSEDTAVYYCLTMTGTSWGRGTLVTVSS
VL: DVQMTQSPSSLSVSVGDRVTMTCQASQGTPINLHWFQQKPGKAPKLLISGASNLEDGVPSRFSGSRYGTAFTLTISSLQPEDIATYFCLQFTYIPWTFGQGTKLEIK
notes: as for B2
B17: hu2131_v4 (antibody, human IgG1, V domains shown)
VH: QVQLVQSGSELKKPGASVKLSCKASGHTFTSYWMHWVKQAPGQGLEWIGNIYPGSGSINYDEKFQGRATLTVDTSTRTAYMELSSLRSEDSAVYYCLTMTGTSWGRGTLVTVSS
VL: DIQMTQSPSSLSVSVGDRVTITCQASQGTPINLHWFQQKPGKAPKLLISGASNLEDGVPSRFSGSGSGTDFTFTISSLQPEDIATYYCLQFTYIPWTFGQGTKLEIK
notes: as for B2
B18: hu2131_v7 (antibody, human IgG1, V domains shown)
VH: QVQLVQSGAEVKKPGASVKLSCKASGHTFTSYWMHWVKQAPGQGLEWIGNIYPGSGSINYDEKFQGRATLTVDTSTRTAYMELSSLRSEDTAVYYCLTMTGTSWGRGTLVTVSS
VL: DVQMTQSPSSLSVSVGDRVTMTCQASQGTPINLHWFQQKPGKAPKLLISGASNLEDGVPSRFSGSRYGTAFTLTISSLQPEDIATYFCLQFTYIPWTFGQGTKLEIK
notes: as for B2
B19: hu2131_v9 (antibody, human IgG1, V domains shown)
VH: QVQLVQSGAEVKKPGASVKLSCKASGHTFTSYWMHWVKQAPGQGLEWIGNIYPGSGSINYDEKFQGRATLTVDTSTRTAYMELSSLRSEDTAVYYCLTMTGTSWGRGTLVTVSS
VL: DIQMTQSPSSLSVSVGDRVTITCQASQGTPINLHWFQQKPGKAPKLLISGASNLEDGVPSRFSGSGSGTDFTFTISSLQPEDIATYYCLQFTYIPWTFGQGTKLEIK
notes: as for B2
B20: hu2131_v1 (antibody, human IgG1, V domains shown)
VH: QVQLVQSGSELKKPGASVKLSCKASGHTFTSYWMHWVKQAPGQGLEWIGNIYPGSGSINYDEKFQGRATLTVDTSTRTAYMELSSLRSEDSAVYYCLTMTGTSWGRGTLVTVSS
VL: DVQMTQSPSSLSVSVGDRVTMTCQASQGTPINLHWFQQKPGKAPKLLISGASNLEDGVPSRFSGSRYGTAFTLTISSLQDEDIATYFCLQFTYIPWTFGQGTKLEIK
notes: as for B2

Biological target: T1, monomeric soluble human CD200R …
Assay: BLI (Octet), antibody on anti-human Fc probes, monomeric CD200R in solution, 25 C, 1:1 global fit
Method: Humanised variant antibodies combining the different heavy and light variable domains described in Example 6 were produced by transient transfection of HEK293 cells. All antibodies were expressed on a human IgGI isotype with a P238D Fc mutation. The unpurified supernatants were analysed by Protein A-HPLC to determine the antibody concentrations, as a measure of expression yield. […] Binding affinity of humanized variants to human CD200R was assessed by bio-layer interferometry on an Octet R4 instrument. Each antibody was captured directly onto anti-human Fc capture probes (Sartorius 18-5060) for 60 sec followed by baseline setting in assay buffer (DPBS, 0.01% Polysorbate-20). Association of monomeric CD200R protein to immobilised antibodies was measured in 4 different protein concentrations (300, 100, 30 and 10 nM in assay buffer) at 25° C., with an association time of 120s and dissociation of 120s in assay buffer only. A reference probe with no antibody immobilised was used for background subtraction. Kinetic rate constants and binding KDs were calculated using Octet Analysis Studio 12 software. Global curve fitting based on all 4 concentrations using a 1:1 model was performed, from which kon and koff were obtained to calculate KD using the relationship KD=koff/kon.

| Binder | Kd [pM] |
| --- | --- |
| B1 | 2160 |
| B2 | 3.18 |
| B3 | 4.43 |
| B4 | 2.45 |
| B5 | 1.03 |
| B6 | 2.9 |
| B7 | 3.88 |
| B8 | 3.18 |
| B9 | 2.94 |
| B10 | 5 |
| B11 | 34.4 |
| B12 | 4.14 |
| B13 | 4.23 |
| B14 | 3.84 |
| B15 | 3.96 |
| B16 | 183 |
| B17 | 2.74 |
| B18 | 3.06 |
| B19 | 3.07 |
| B20 | 3.63 |

Source: patent publication US20230416361A1 (MIROBIO, published 2023)
